From patent publication US20050113284A1, “Drug for regenerating tissue and vessel and method therefor” (priority 2001, published 2005)

Biological target: mouse HGF receptor c-Met (endogenous in mouse hepatocytes and liver) (mouse) (UniProt P16056)
Test: cell-based or functional assay

With “full-length mouse MERMUC overexpressed in MERMUC-Tg mice (from UniProt Q8BUE7 22-656)” the ratio of liver weight to body weight after transient overexpression of human HGF was 1.2 times.
